Assay results: patent publication US20240376208A1 (AFFIMED, published 2024)
Read-outs that look alike come from different tables or passages of the source.

T1: BCMA on MM.1S target cells (UniProt Q02223 1-184, limits assumed)
T1 sequence (looked up): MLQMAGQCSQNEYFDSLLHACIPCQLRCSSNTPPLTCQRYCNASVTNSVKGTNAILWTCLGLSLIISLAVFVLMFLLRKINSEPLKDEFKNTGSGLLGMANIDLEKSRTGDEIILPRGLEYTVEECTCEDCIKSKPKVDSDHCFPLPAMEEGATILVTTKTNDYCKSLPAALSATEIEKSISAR

B1: scFv-IgAb_167 (bispecific antibody)
heavy: QVQLQESGPGLVKPSETLSLTCTVSGGSVSSGSYYWSWIRQPPGKGLEWIGYIYYSGSTNYNPSLKSRVTISVDTSKNQFSLKLSSVTAADTAVYYCARNPISIPAFDIWGQGTMVTVSSASTKGPSVFPLAPSSKSTSGGTAALGCLVKDYFPEPVTVSWNSGALTSGVHTFPAVLQSSGLYSLSSVVTVPSSSLGTQTYICNVNHKPSNTKVDKKVEPKSCDKTHTCPPCPAPEFEGGPSVFLFPPKPKDTLMISRTPEVTCVVVAVSHEDPEVKFNWYVDGVEVHNAKTKPREEQYNSTYRVVSVLTVLHQDWLNGKEYKCKVSNKALPAPIEKTISKAKGQPREPQVYTLPPSREEMTKNQVSLTCLVKGFYPSDIAVEWESNGQPENNYKTTPPVLDSDGSFFLYSKLTVDKSRWQQGNVFSCSVMHEALHNHYTQKSLSLSPGGGGGSGGGGSGGGGSGGGGSGGGGSGGGGSSYVLTQPSSVSVAPGQTARITCGGNNIGSKSVHWYQQKPGQAPVLVIYQDKKRPSGIPERFSGSNSGNTATLTISGTQAMDEADYYCQVWDDYIVLFGGGTKLTVLGGSGGSGGSGGSGGSGGSGGSQVQLVQSGAEVKKPGESLKVSCKASGYTFTNYYMQWVRQAPGQGLEWMGIINPSGGVTSYAQKFQGRVTMTRDTSTSTVYMELSSLRSEDTAVYYCARGSAYYYDFADYWGQGTLVTVSS
light: QPVLTQPPSVSVAPGKTARITCGGNNIGSKSVHWYQQKPGQAPVLVIYYDSDRPSGIPERFSGSNSGNTATLTISRVEAGDEADYYCQVWDTSSDHVLFGGGTKLTVLGQPKAAPSVTLFPPSSEELQANKATLVCLISDFYPGAVTVAWKADSSPVKAGVETTTPSKQSNNKYAASSYLSLTPEQWKSHRSYSCQVTHEGSTVEKTVAPTECS
B2: Bi-scDb-IgAb_06 (bispecific antibody)
heavy: QVQLQESGPGLVKPSETLSLTCTVSGGSVSSGSYYWSWIRQPPGKGLEWIGYIYYSGSTNYNPSLKSRVTISVDTSKNQFSLKLSSVTAADTAVYYCARNPISIPAFDIWGQGTMVTVSSASTKGPSVFPLAPSSKSTSGGTAALGCLVKDYFPEPVTVSWNSGALTSGVHTFPAVLQSSGLYSLSSVVTVPSSSLGTQTYICNVNHKPSNTKVDKKVEPKSCDKTHTCPPCPAPEFEGGPSVFLFPPKPKDTLMISRTPEVTCVVVAVSHEDPEVKFNWYVDGVEVHNAKTKPREEQYNSTYRVVSVLTVLHQDWLNGKEYKCKVSNKALPAPIEKTISKAKGQPREPQVYTLPPSREEMTKNQVSLTCLVKGFYPSDIAVEWESNGQPENNYKTTPPVLDSDGSFFLYSKLTVDKSRWQQGNVFSCSVMHEALHNHYTQKSLSLSPGGGGGSGGGGSSYVLTQPSSVSVAPGQTATISCGGHNIGSKNVHWYQQRPGQSPVLVIYQDNKRPSGIPERFSGSNSGNTATLTISGTQAMDEADYYCQVWDNYSVLFGGGTKLTVLGGSGGSQVQLVQSGAEVKKPGESLKVSCKASGYTFTSYYMHWVRQAPGQGLEWMGAIEPMYGSTSYAQKFQGRVTMTRDTSTSTVYMELSSLRSEDTAVYYCARGSAYYYDFADYWGQGTLVTVSSGGSGGSGGSGGSGGSGGSSYVLTQPSSVSVAPGQTATISCGGHNIGSKNVHWYQQRPGQSPVLVIYQDNKRPSGIPERFSGSNSGNTATLTISGTQAMDEADYYCQVWDNYSVLFGGGTKLTVLGGSGGSQVQLVQSGAEVKKPGESLKVSCKASGYTFTSYYMHWVRQAPGQGLEWMGAIEPMYGSTSYAQKFQGRVTMTRDTSTSTVYMELSSLRSEDTAVYYCARGSAYYYDFADYWGQGTLVTVSS
light: B1 light
B3: aBi-scDb-Fc_01 (bispecific antibody)
chain 1: SYVLTQPSSVSVAPGQTATISCGGHNIGSKNVHWYQQRPGQSPVLVIYQDNKRPSGIPERFSGSNSGNTATLTISGTQAMDEADYYCQVWDNYSVLFGGGTKLTVLGGSGGSQVQLVQSGAEVKKPGESLKVSCKASGYTFTSYYMHWVRQAPGQGLEWMGAIEPMYGSTSYAQKFQGRVTMTRDTSTSTVYMELSSLRSEDTAVYYCARGSAYYYDFADYWGQGTLVTVSSGGSGGSGGSGGSGGSGGSSYVLTQPSSVSVAPGQTATISCGGHNIGSKNVHWYQQRPGQSPVLVIYQDNKRPSGIPERFSGSNSGNTATLTISGTQAMDEADYYCQVWDNYSVLFGGGTKLTVLGGSGGSQVQLVQSGAEVKKPGESLKVSCKASGYTFTSYYMHWVRQAPGQGLEWMGAIEPMYGSTSYAQKFQGRVTMTRDTSTSTVYMELSSLRSEDTAVYYCARGSAYYYDFADYWGQGTLVTVSSGGGGSDKTHTCPPCPAPEFEGGPSVFLFPPKPKDTLMISRTPEVTCVVVAVSHEDPEVKFNWYVDGVEVHNAKTKPREEQYNSTYRVVSVLTVLHQDWLNGKEYKCKVSNKALPAPIEKTISKAKGQPREPQVYTLPPSREEMTKNQVSLTCLVKGFYPSDIAVEWESNGQPENNYKTTPPVLDSDGSFFLTSKLTVDKSRWQQGNVFSCSVMHEALHNHYTQKSLSLSPGAAAGSHHHHHH
chain 2: SYVLTQPSSVSVAPGQTATISCGGHNIGSKNVHWYQQRPGQSPVLVIYQDNKRPSGIPERFSGSNSGNTATLTISGTQAMDEADYYCQVWDNYSVLFGGGTKLTVLGGSGGSQVQLVQSGAEVKKPGESLKVSCKASGYTFTSYYMHWVRQAPGQGLEWMGAIEPMYGSTSYAQKFQGRVTMTRDTSTSTVYMELSSLRSEDTAVYYCARGSAYYYDFADYWGQGTLVTVSSGGSGGSGGSGGSGGSGGSSYVLTQPSSVSVAPGQTATISCGGHNIGSKNVHWYQQRPGQSPVLVIYQDNKRPSGIPERFSGSNSGNTATLTISGTQAMDEADYYCQVWDNYSVLFGGGTKLTVLGGSGGSQVQLVQSGAEVKKPGESLKVSCKASGYTFTSYYMHWVRQAPGQGLEWMGAIEPMYGSTSYAQKFQGRVTMTRDTSTSTVYMELSSLRSEDTAVYYCARGSAYYYDFADYWGQGTLVTVSSGGGGSDKTHTCPPCPAPEFEGGPSVFLFPPKPKDTLMISRTPEVTCVVVAVSHEDPEVKFNWYVDGVEVHNAKTKPREEQYNSTYRVVSVLTVLHQDWLNGKEYKCKVSNKALPAPIEKTISKAKGQPREPQVYTLPPSREEMTKNQVSLYCLVKGFYPSDIAVEWESNGQPENNYKTTPPVLDSDGSFFLYSKLTVDKSRWQQGNVFSCSVMHEALHNHYTQKSLSLSPGGGGGSGGGGSEVQLLESGGGLVQPGGSLRLSCAASGFTFSNYDMAWVRQAPGKGLEWVSSISTRGDITSYRDSVKGRFTISRDNSKNTLYLQMNSLRAEDTAVYYCARQDYYTDYMGFAYWGQGTLVTVSSGGGGSGGGGSGGGGSAIQMTQSPSSLSASVGDRVTITCRASEDIYNGLAWYQQKPGKAPKLLIYGASSLQDGVPSRFSGSGSGTEFTLTISSLQPEDEATYYCAGPHKYPLTFGGGTKVEIK
B4: aBi-scDb-Fc_03 (bispecific antibody)
chain 1: DKTHTCPPCPAPEFEGGPSVFLFPPKPKDTLMISRTPEVTCVVVAVSHEDPEVKFNWYVDGVEVHNAKTKPREEQYNSTYRVVSVLTVLHQDWLNGKEYKCKVSNKALPAPIEKTISKAKGQPREPQVYTLPPSREEMTKNQVSLTCLVKGFYPSDIAVEWESNGQPENNYKTTPPVLDSDGSFFLTSKLTVDKSRWQQGNVFSCSVMHEALHNHYTQKSLSLSPGGGGGSGGGGSSYVLTQPSSVSVAPGQTATISCGGHNIGSKNVHWYQQRPGQSPVLVIYQDNKRPSGIPERFSGSNSGNTATLTISGTQAMDEADYYCQVWDNYSVLFGGGTKLTVLGGSGGSQVQLVQSGAEVKKPGESLKVSCKASGYTFTSYYMHWVRQAPGQGLEWMGAIEPMYGSTSYAQKFQGRVTMTRDTSTSTVYMELSSLRSEDTAVYYCARGSAYYYDFADYWGQGTLVTVSSGGSGGSGGSGGSGGSGGSSYVLTQPSSVSVAPGQTATISCGGHNIGSKNVHWYQQRPGQSPVLVIYQDNKRPSGIPERFSGSNSGNTATLTISGTQAMDEADYYCQVWDNYSVLFGGGTKLTVLGGSGGSQVQLVQSGAEVKKPGESLKVSCKASGYTFTSYYMHWVRQAPGQGLEWMGAIEPMYGSTSYAQKFQGRVTMTRDTSTSTVYMELSSLRSEDTAVYYCARGSAYYYDFADYWGQGTLVTVSSAAAGSHHHHHH
chain 2: B3 chain 2
B5: scFv-Fc-scDb_04 (bispecific antibody)
chain: QVQLQESGPGLVKPSETLSLTCTVSGGSVSSGSYYWSWIRQPPGKGLEWIGYIYYSGSTNYNPSLKSRVTISVDTSKNQFSLKLSSVTAADTAVYYCARNPISIPAFDIWGQGTMVTVSSGGSGGSGGSGGSGGSGGSQPVLTQPPSVSVAPGKTARITCGGNNIGSKSVHWYQQKPGQAPVLVIYYDSDRPSGIPERFSGSNSGNTATLTISRVEAGDEADYYCQVWDTSSDHVLFGGGTKLTVLGGGGSDKTHTCPPCPAPEFEGGPSVFLFPPKPKDTLMISRTPEVTCVVVAVSHEDPEVKFNWYVDGVEVHNAKTKPREEQYGSTYRVVSVLTVLHQDWLNGKEYKCKVSNKALPAPIEKTISKAKGQPREPQVYTLPPSREEMTKNQVSLTCLVKGFYPSDIAVEWESNGQPENNYKTTPPVLDSDGSFFLYSKLTVDKSRWQQGNVFSCSVMHEALHNHYTQKSLSLSPGGGGGSGGGGSSYELTQPLSVSVALGQTARITCGGHNIGSKNVHWYQQKPGQAPVLVIYQDNKRPSGIPERFSGSNSGNTATLTISRAQAGDEADYYCQVWDNYNVLFGCGTKLTVLGGSGGSQVQLVQSGAEVKKPGASVKVSCKASGYTFTSYYMHWVRQAPGQCLEWMGAIEPTYGSTSYAQKFQGRVTMTRDTSTSTVYMELSSLRSEDTAVYYCARGSAYYYDFADYWGQGTLVTVSSGGSGGSGGSGGSGGSGGSSYELTQPLSVSVALGQTARITCGGHNIGSKNVHWYQQKPGQAPVLVIYQDNKRPSGIPERFSGSNSGNTATLTISRAQAGDEADYYCQVWDNYNVLFGCGTKLTVLGGSGGSQVQLVQSGAEVKKPGASVKVSCKASGYTFTSYYMHWVRQAPGQCLEWMGAIEPTYGSTSYAQKFQGRVTMTRDTSTSTVYMELSSLRSEDTAVYYCARGSAYYYDFADYWGQGTLVTVSS

What was measured:
Experiment in all cases: cell-based or functional assay
[1] = biological target: T2, EGFR on tumor target cells (MCF-7, Daudi, DK-MG, HCT-116) (UniProt P00533 25-1210, limits assumed)
[2] = biological target: T2, EGFR on tumor target cells (MCF-7, …); remark: listed apart in the source
[3] = biological target: CD16A on primary human NK cells (human, UniProt P08637 17-254)
CD16A on primary human NK cells, sequence (P08637 17-254 limits assumed): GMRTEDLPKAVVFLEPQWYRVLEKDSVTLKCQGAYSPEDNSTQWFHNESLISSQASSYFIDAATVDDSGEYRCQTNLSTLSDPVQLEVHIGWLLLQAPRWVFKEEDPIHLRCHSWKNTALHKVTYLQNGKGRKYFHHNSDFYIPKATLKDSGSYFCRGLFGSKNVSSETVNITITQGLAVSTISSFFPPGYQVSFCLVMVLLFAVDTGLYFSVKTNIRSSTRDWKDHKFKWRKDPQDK

[4] = biological target: T1, BCMA on MM.1S target cells
[5] = biological target: T2, EGFR on tumor target cells (MCF-7, …); remark: listed apart in the source

| Binder | EC50 [pM], 4 h calcein-release cytotoxicity on Daudi target cells, NK cells E:T 5:1 [1] [pM] | Emax [%], 4 h calcein-release cytotoxicity on Daudi target cells, NK cells E:T 5:1 [1] [%] | EC50 [pM], 4 h calcein-release cytotoxicity on MCF-7 target cells, NK cells E:T 5:1 [2] [pM] | Emax [%], 4 h calcein-release cytotoxicity on MCF-7 target cells, NK cells E:T 5:1 [2] [%] | Emax [%], 4 h calcein-release NK cell fratricide assay, E:T 1:1 [3] [%] | EC50 [pM], 4 h calcein-release cytotoxicity on BCMA+ MM.1S target cells, NK cells E:T 5:1 [4] [pM] | Emax [%], 4 h calcein-release cytotoxicity on BCMA+ MM.1S target cells, NK cells E:T 5:1 [4] [%] | Emax [%], 4 h calcein-release cytotoxicity on Daudi target cells, NK cells E:T 5:1 [5] [%] |
| --- | --- | --- | --- | --- | --- | --- | --- | --- |
| B1 | 46.8 | 8 | 8.8 | 17.9 | 2.8 | – | – | – |
| B2 | 18.6 | 18.2 | 2.1 | 25 | 15 | – | – | – |
| B3 | – | – | – | – | – | 1 | 46.4 | – |
| B4 | – | – | – | – | – | 2.4 | 51 | – |
| B5 | – | – | – | – | – | – | – | 22.6 |
